The test system of experiment [1] is H1975 lung adenocarcinoma xenografts. Put plainly: H1975 lung adenocarcinoma xenograft. The note with it: for median survival: PEG-BCT-100 20 mg/kg IP twice a week. The experiment is classed as in vivo, BALB/c nude mice. How it is done:
In one example embodiment, ten million lung adenocarcinoma cells from cell lines H1650, H1975, and HCC4006 are engrafted subcutaneously in BALB/cnude mice (4 weeks old with body weight of 10-14 g). Body weight, clinical signs and survival times are recorded.
Two groups of the mice, with eight mice in each group, are tested. Control group (negative control) receives physiological saline and treatment group receives 20 mg/kg of PEG-BCT-100. PEG-BCT-100 is administered via intraperitoneal (IP) injection, twice weekly, until euthanization.
In one example embodiment, ten million lung adenocarcinoma cells from cell lines H1650, H1975 and HCC4006 are engrafted subcutaneously in BALB/cnude mice (4 weeks old with body weight of 10-14 g). Body weight, clinical signs and survival times are recorded.
Four groups of the mice, with eight mice in each group, are tested. Control group (negative control) receives physiological saline, and the three treatment groups respectively receive 20 mg/kg of PEG-BCT-100 alone, 2% w/v DFMO in drinking water, and combination of 20 mg/kg of PEG-BCT-100 and 2% w/v DFMO. PEG-BCT-100 is administered intraperitoneally, twice a week, until euthanization while DFMO is supplied in drinking water at 2% w/v.

The subject of experiment [2] is Kasumi-1 leukemia xenograft. The experiment is described as follows: Kasumi-1 leukemia xenograft model. It is filed as in vivo, mouse. The note with it: Kasumi-1 xenograft; for anti-tumour effect: PEG-BCT-100 20 mg/kg IV twice a week, DFMO 2% w/v in drinking water. As to the method: In one example embodiment, the Kasumi-1 tumour cells are maintained in vitro as a suspension culture in RPMI1640 medium supplemented with 10% heat inactivated fetal bovine serum at 37° C. in an atmosphere of 5% CO2 in air. The tumour cells are routinely sub-cultured twice weekly. The cells growing in an exponential growth phase are harvested and counted for tumour inoculation.
All mice are γ-irradiated (200 rad) for 24 h before tumour cell injection. Kasumi-1 tumour cells (1×10^7) in 0.2 ml of PBS are mixed with cultrex in a 1:1 ratio. Each mouse is inoculated subcutaneously at the right flank region with the tumour cells suspension for tumour development. The treatments start when the mean tumour size reached 114 mm^3. The date of tumour cell inoculation is denoted as day 0.
(§1) Four treatment groups of animals, with eight animals in each group, are tested. Control group (negative control) receives physiological saline, and the three treatment groups respectively receive 20 mg/kg of PEG-BCT-100 alone, 2% w/v DFMO in drinking water, and combination of 20 mg/kg of PEG-BCT-100 and 2% w/v DFMO. PEG-BCT-100 is administered intravenously, twice a week, until euthanization while DFMO is supplied in drinking water at 2% w/v.

Experiment [3] relates to Hep G2 hepatocellular carcinoma xenograft. The experiment is described as follows: Hep G2 hepatocellular carcinoma xenograft model. Conditions: PEG-BCT-100 20 mg/kg IV twice a week, DFMO 2% w/v in drinking water. The experiment is classed as in vivo, mouse. How it is done:
In one example embodiment, the Hep G2 human liver cancer cells are maintained in vitro culture in RPMI1640 medium supplemented with 10% fetal bovine serum at 37° C. in an atmosphere of 5% CO2 in air. The tumour cells are routinely sub-cultured twice weekly. The cells in an exponential growth phase are harvested and counted for tumour inoculation.
Each mouse is inoculated subcutaneously at the right flank region with Hep G2 tumour cells (1×10^7) in 0.2 ml of PBS (1:1 Matrigel) for tumour development. The treatments start when the mean tumour volume reaches 124 mm^3. The date of tumour cell inoculation is denoted as day 0.
as §1

The test system of experiment [4] is Hep 3B hepatocellular carcinoma xenograft. Put plainly: Hep 3B hepatocellular carcinoma xenograft model. It is filed as in vivo, mouse. Conditions: Hep 3B xenograft; PEG-BCT-100 20 mg/kg IV twice a week; DFMO 2% w/v in drinking water. As to the method: In one example embodiment, the Hep 3B tumour cells are maintained in vitro culture in EMEM medium supplemented with 10% heat inactivated fetal bovine serum at 37° C. in an atmosphere of 5% CO2 in air. The tumour cells are routinely sub-cultured twice weekly. The cells growing in an exponential growth phase are harvested and counted for tumour inoculation.
Each mouse is inoculated subcutaneously at the right flank region with Hep 3B tumour cells (5×10^6) in 0.1 ml of PBS (1:1 Matrigel) for tumour development. The treatments start when the mean tumour size reaches 119 mm^3. The date of tumour cell inoculation is denoted as day 0.
as §1

The subject of experiment [5] is MIA-PaCa-2 pancreatic cancer xenograft. The experiment is described as follows: MIA-PaCa-2 pancreatic cancer xenograft model. It is filed as in vivo, mouse. Conditions: MIA-PaCa-2 xenograft; PEG-BCT-100 20 mg/kg IV twice a week; DFMO 2% w/v in drinking water. How it is done:
In one example embodiment, the MIA-PaCa-2 tumour cells are maintained in vitro culture in EMEM medium supplemented with 10% heat inactivated fetal bovine serum at 37° C. in an atmosphere of 5% CO2 in air. The tumour cells are routinely sub-cultured twice weekly. The cells growing in an exponential growth phase are harvested and counted for tumour inoculation.
Each mouse is inoculated subcutaneously at the right flank region with MIA-PaCa-2 tumour cells (5×10^6) in 0.1 ml of PBS (1:1 Matrigel) for tumour development. The treatments start when the mean tumour size reaches 124 mm^3. The date of tumour cell inoculation was denoted as day 0.
as §1

The test system of experiment [6] is HCC827 lung adenocarcinoma cell line. Put plainly: MTT assay, growth inhibition of HCC827 cell line. The experiment is classed as cell-based. Conditions: 48 h and 72 h at 0.5 ng/μl and 10 ng/μl. How it is done: (§2) The inhibition ratio (IR) and the half maximal inhibitory concentration (IC50) values are determined by a MTT assay.
A general note: Tetrazolium assays rely on reduction of a dye to a coloured formazan, in cell work by metabolically active cells.

Experiment [7] concerns H1650 lung adenocarcinoma cell line. Put plainly: MTT assay, growth inhibition of H1650 cell line. It is filed as cell-based. The note with it: 48 h and 72 h at 10 ng/μl. How it is done: as §2
Experiment [8] deals with H1975 lung adenocarcinoma cell line. The experiment is described as follows: MTT assay, growth inhibition of H1975 cell line. It is filed as cell-based. The note with it: 48 h and 72 h at 0.5 ng/μl and 10 ng/μl. As to the method: as §2
Experiment [9] relates to HCC2935 lung adenocarcinoma cell line. Put plainly: MTT assay, growth inhibition of HCC2935 cell line. The experiment is classed as cell-based. Conditions: 72 h at 10 ng/μl only. How it is done:
as §2

The test system of experiment [10] is HCC4006 lung adenocarcinoma cell line. Put plainly: MTT assay, growth inhibition of HCC4006 cell line. The note with it: 48 h and 72 h at 0.5 ng/μl and 10 ng/μl. The experiment is classed as cell-based. How it is done: as §2
The subject of experiment [11] is A549 lung adenocarcinoma cell line. The experiment is described as follows: MTT assay, growth inhibition of A549 cell line. The experiment is classed as cell-based. Conditions: 48 h and 72 h at 0.5 ng/μl and 10 ng/μl. How it is done: as §2

“Also recorded” adds a separate entry of the source.

The term TGI denotes the reduction of tumour growth relative to the control group. Turning to `NCCC[C@](N)(C(=O)O)C(F)F` [DFMO, α-difluoromethylornithine, reference compound], in experiment [1] (DFMO 2% w/v in drinking water), the median survival is reported as 18 days. In addition, the TGI in [2] (2% DFMO in drinking water) is 45%. The anti-tumour effect result in [2] is reported as “significant anti-tumour activity”; in experiment [3], “significant anti-tumour effect”; in experiment [4], “significant anti-tumour effect”; in experiment [5] it was “significant anti-tumour effect”.

B1: PEG-BCT-100: pegylated recombinant human arginase I (SEQ ID NO.1, or SEQ ID NO.3 with six histidines), about 6-12 PEG molecules per arginase (protein, UniProt P05089 1-322, looked up)
Arginase-1: MSAKSRTIGIIGAPFSKGQPRGGVEEGPTVLRKAGLLEKLKEQECDVKDYGDLPFADIPNDSPFQIVKNPRSVGKASEQLAGKVAEVKKNGRISLVLGGDHSLAIGSISGHARVHPDLGVIWVDAHTDINTPLTTTSGNLHGQPVSFLLKELKGKIPDVPGFSWVTPCISAKDIVYIGLRDVDPGEHYILKTLGIKYFSMTEVDRLGIGKVMEETLSYLLGRKKRPIHLSFDVDGLDPSFTPATGTPVVGGLTYREGLYITEEIYKTGLLSGLDIMEVNPSLGKTPEEVTRTVNTAVAITLACFGLAREGNHKPIDYLNPPK
modifications: PEG, about 6-12 per arginase; optional His6 tag
As to B1, the “growth inhibition effect (cell proliferation)” value in experiment [6] is listed as “inhibits HCC827 lung adenocarcinoma cell line proliferation more effectively than ADI”; in experiment [7], “inhibits H1650 lung adenocarcinoma cell line proliferation more effectively than ADI”; in experiment [8], “inhibits H1975 lung adenocarcinoma cell line proliferation”; in [10], “inhibits HCC4006 lung adenocarcinoma cell line proliferation more effectively than ADI”; in experiment [11], “inhibits A549 lung adenocarcinoma cell line proliferation more effectively than ADI”. Also, in experiment [9], the “growth inhibition effect (cell proliferation / toxicity)” value was “induces toxicity in HCC2935 lung adenocarcinoma cell line”. Besides, the median survival in experiment [1] (DFMO 2% w/v in drinking water) is given as 15 days. Also, the tumour growth entry in [1] (PEG-BCT-100 20 mg/kg IP twice weekly, DFMO 2% w/v in drinking water, 20 mg/kg) is on record as “induces lung adenocarcinoma proliferation; also recorded: promotes tumour growth”. Besides, the “in vivo ASS1 expression (Western blot)” value in [1] (PEG-BCT-100 20 mg/kg vs control arm) was “decreases”. For the same molecule, the “in vivo ODC expression (Western blot)” value in experiment [1] (PEG-BCT-100 20 mg/kg vs control arm, 20 mg/kg) is “increases; also recorded: over-expressed; also recorded: upregulated”. Besides, the figures for the anti-tumour effect entry in [2], in [4] and in [5] were “no significant anti-tumour effect”, “does not produce a significant anti-tumour effect” and “do not produce a significant anti-tumour effect”, respectively.

The record behind these values is patent publication US20180271960A1, “METHOD TO TREAT CANCER USING ARGININE DELPETOR AND ORNITHINE DECARBOXYLASE (ODC) INHIBITOR” (Bio-Cancer Treatment International Ltd., priority 2015, published 2018).
